Test results published in publication PMC11157482.

Biological target: Aβ42 wild-type (UniProt P05067)
Assay: fluorescence correlation spectroscopy (FCS); oligomers formed from S8C-Alexa488 and WT Aβ42 monomers 1:1.5 (labeled/unlabeled), about 10 μM total, 37 °C, stopped at t1/2; fibrils removed by centrifugation, oligomeric fraction isolated on Superdex 75; measured alone (three replicates) or with unlabeled WT fibrils (six replicates) 3-7 min after start, 37 °C, 20 mM sodium phosphate, 0.2 mM EDTA, pH 8.0; three-component fit (free dye, monomer, oligomer)

- oligomer dissociation half-life (in the presence of unlabeled WT fibrils): < 7 min
- stoichiometry N: 37 monomers
Substance: Alexa-488-labeled Aβ42-S8C (peptide)
